Laboratory results taken from patent US9395368B2, “Methods, agents and peptides for inducing an immune response to matrix metalloproteinase-2 expressing tumors” (New York University, priority 2010, dated 2016).

Columns and labels:
Type in all cases: cell-based, human
[1] = tested on: phosphorylated (Y701) STAT1; assay: Intracellular staining of phosphorylated (Y701) STAT1 in DCs; conditions: DCs preincubated 1 h (5 μg/mL) prior to poly(I:C), 3 h
Experimental: Immature DCs were incubated with MMP-2 (0.5 μg/mL or 5 μg/mL) and poly(I:C)-matured 1 h later. IL-12 levels were measured 16 h later. (A) Results are represented as a percentage of IL-12p70 levels, measured by CBA, produced when DCs were incubated with poly(I:C) only (n=11). (B) For intracellular staining of IL-12p35 and IL-12p40 chains, Brefeldin A was added 4 h after poly(I:C) activation and cells were stained after an additional 12 h incubation. Numbers in the upper right quadrants are the percentages of each population for a representative donor (n=3). (C,D) Immature DCs were incubated with MMP-2 for 1 h (5 μg/mL) before poly(I:C) maturation. Intracellular staining of phosphorylated (Y701) STAT1 (P-STAT1) was performed 3 h later. A representative donor (C) and results for all 3 donors (D) are shown. […] (E) Immature DCs were incubated with MMP-2 and poly(I:C)-matured 1 h later. IFNβ levels were measured by ELISA 16 h later. Results are represented as a percentage of IFNβ levels produced when DCs were incubated with poly(I:C) only (n=9). […] IFNAR1 protein expression was detected the next day by Western blot analysis using a rabbit monoclonal antibody. […]
Intracellular staining T-bet and GATA-3 expression was measured on resting T cells. […] Cytokine production by T cells was also assessed by intracellular staining T cells were stimulated with 2 μM overlapping peptides. […]

OX40L expression on DCs = OX40L expression on DCs by surface staining; conditions: immature and poly(I:C)-matured DCs, n=9, 24 h
Experimental: Immature and poly(I:C)-matured DCs were incubated with active or HI MMP-2 (0.5 μg/mL or 5 μg/mL) for 24 h. MMP-2 enzymatic activity was controlled (FIG. 13C-D). OX40L expression was assessed by surface staining (A) Histogram plots are shown for representative donor HD1228. Isotype control is represented in tinted gray. (B) Mean fluorescent intensities are represented for all 9 donors tested. […] P values≦0.0167 (*) were considered statistically significant using a Bonferroni correction for 3 comparisons for each DC type. See also FIG. 12.
Dendritic cell preparation and activation. PBMCs were purified from healthy—(HD) or cord blood—(CB) donors and plated at 40×10^6 cells/10 mL/dish in complete IMDM with 5% PHS. Cells were allowed to adhere for 2 h at 37° C. Non-adherent cells were removed. The monocyte-enriched fraction was supplemented with 100 UI/mL rhGMCSF and 300 UI/mL rhIL-4 (R&D Systems) on days 0, 2 and 4. Immature DCs were harvested on day 5 and matured using poly(I:C) at 5 μg/mL/10^6 DCs (Amersham) Secretion of IL-12p70, TNFα, IL-1β, IL-6, IL-8 and IL-10 was assessed on both immature and mature DCs using the Human Inflammatory Cytokine Cytometric Bead Array (BD Pharmingen).

[2] = tested on: CD40, CD80, CD83, CD86, HLA-DR and CCR7 on DCs; assay: Expression of maturation markers by DCs
Experimental: Antibodies. Allophycocyanin-conjugated antibody to CCR-7 (150503) was purchased from R&D Systems. Unconjugated (10 μg/mL for blocking experiments) or phycoerythrin-conjugated antibody to OX40L (11C3.1) was from Biolegend. Blocking antibody to IL-4 (8F12; 10 μg/mL) was from Acris. Antibodies to human Vβ chains covering 70% of the repertoire (10Test Beta Mark; Beckman Coulter) were used according to the manufacturer's instructions. Fluorescein isothiocyanate-conjugated antibody to IL-12p35/IL-12p70 (B-T21) and IFNAR1 (EP899Y) were from Abcam. Phycoerythrine-conjugated antibodies to IL-12p40/IL-12p70 (C8.6), IL-10 (B-T10), CD203c (FR3-16A11) were from Miltenyi Biotec. Blocking antibody to HLA-DQ (SPVL3; 20 μg/mL) was from NeoMarkers. […]
(§1) Dendritic cell preparation and activation. […] Immature DCs were harvested on day 5 and matured using poly(I:C) at 5 μg/mL/10^6 DCs (Amersham) Secretion of IL-12p70, TNFα, IL-1β, IL-6, IL-8 and IL-10 was assessed on both immature and mature DCs using the Human Inflammatory Cytokine Cytometric Bead Array (BD Pharmingen).
We next evaluated whether DCs could be involved in the polarization of MMP-2-specific CD4^+ T cells.

[3] = tested on: IL-12p70 production by DCs; assay: IL-12p70 production by poly(I:C)-matured DCs (CBA); conditions: DCs stimulated with poly(I:C)
Experimental: Immature DCs were incubated with MMP-2 (0.5 μg/mL or 5 μg/mL) and poly(I:C)-matured 1 h later. IL-12 levels were measured 16 h later. (A) Results are represented as a percentage of IL-12p70 levels, measured by CBA, produced when DCs were incubated with poly(I:C) only (n=11). (B) For intracellular staining of IL-12p35 and IL-12p40 chains, Brefeldin A was added 4 h after poly(I:C) activation and cells were stained after an additional 12 h incubation. Numbers in the upper right quadrants are the percentages of each population for a representative donor (n=3). (C,D) Immature DCs were incubated with MMP-2 for 1 h (5 μg/mL) before poly(I:C) maturation. Intracellular staining of phosphorylated (Y701) STAT1 (P-STAT1) was performed 3 h later. A representative donor (C) and results for all 3 donors (D) are shown. […] (E) Immature DCs were incubated with MMP-2 and poly(I:C)-matured 1 h later. IFNβ levels were measured by ELISA 16 h later. Results are represented as a percentage of IFNβ levels produced when DCs were incubated with poly(I:C) only (n=9). (F,G) 10^6DCs/lane were treated with 0.1 μg MMP-2 or controls. Poly(I:C) was added 1 h later. IFNAR1 protein expression was detected the next day by Western blot analysis using a rabbit monoclonal antibody. A representative donor (F) and results for all 7 donors (G) are shown. (H) The rhIFNAR1 (5 μg; ≈110 kD) was incubated overnight with 0.3 μg MMP-2 before performing Western blot analysis for IFNAR1. The second band (around 90 kD) and the third band (25 kD) very likely correspond to either a degraded form of the protein still recognized by the antibody or a contaminant present in the commercial protein preparation and non-specifically recognized by the antibody. MMP-2 enzymatic activity was controlled (FIG. 13C-D). […]
as §1

B1: inactivated MMP-2: MMP-2 enzyme inactivated either by heating or by addition of the MMP-2 inhibitor III; mode not stated at the place (protein, listed as Homo sapiens)
chain: MEALMARGALTGPLRALCLLGCLLSHAAAAPSPIIKFPGDVAPKTDKELAVQYLNTFYGCPKESCNLFVLKDTLKKMQKFFGLPQTGDLDQNTIETMRKPRCGNPDVANYNFFPRKPKWDKNQITYRIIGYTPDLDPETVDDAFARAFQVWSDVTPLRFSRIHDGEADIMINFGRWEHGDGYPFDGKDGLLAHAFAPGTGVGGDSHFDDDELWTLGEGQVVRVKYGNADGEYCKFPFLFNGKEYNSCTDTGRSDGFLWCSTTYNFEKDGKYGFCPHEALFTMGGNAEGQPCKFPFRFQGTSYDSCTTEGRTDGYRWCGTTEDYDRDKKYGFCPETAMSTVGGNSEGAPCVFPFTFLGNKYESCTSAGRSDGKMWCATTANYDDDRKWGFCPDQGYSLFLVAAHEFGHAMGLEHSQDPGALMAPIYTYTKNFRLSQDDIKGIQELYGASPDIDLGTGPTPTLGPVTPEICKQDIVFDGIAQIRGEIFFFKDRFIWRTVTPRDKPMGPLLVATFWPELPEKIDAVYEAPQEEKAVFFAGNEYWIYSASTLERGYPKPLTSLGLPPDVQRVDAAFNWSKNKKTYIFAGDKFWRYNEVKKKMDPGFPKLIADAWNAIPDNLDAVVDLQGGGHSYFFKGAYYLKLENQSLKSVKFGSIKSDWLGC
modifications: heat or inhibitor inactivated
STAT1 phosphorylation [1]: not | OX40L expression on DCs (OX40L expression on DCs): significantly increased | expression levels of maturation markers CD40, CD80, CD83, CD86, HLA-DR and CCR7 [2]: not significantly affected | reduction in IL-12 [3]: not observed
